Test system: MS2 coat protein
Assay: apparent KD of MS2 coat protein; higher = weaker reporter binding
Details: Eterna round: R107
Procedure, shortened: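 Designed RNA switches, transcribed on-chip from Illumina sequencing clusters, were titrated with SNAP-549-labelled MS2 coat protein from 0.7 or 1.5 nM to 3 µM in twofold steps. The solution was 100 mM Tris-HCl pH 7.5, 80 mM KCl, 4 mM MgCl2, with constant ligand or without it. Apparent KD is the median over each design's normalised cluster binding-curve fits.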

[1] = input ligand: theophylline 20 uM
[2] = input ligand: theophylline 2 mM
[3] = input ligand: tryptophan 2.4 mM

| Sequence | apparent KD of MS2 coat protein (input ligand: arginine 13.2 mM) [nM] | apparent KD of MS2 coat protein [1] [nM] | apparent KD of MS2 coat protein [2] [nM] | apparent KD of MS2 coat protein (input ligand: none) [nM] | apparent KD of MS2 coat protein [3] [nM] |
| --- | --- | --- | --- | --- | --- |
| AGAUGAGUCACGGCCGCCACUCUUAUCAGGAUCACCCAUGGUUGACAUGAGGAUCACCCAUGUAUGAGGACCGGGUGAUGAGCAU [XTryp B #1] | 13.7 | 15.9 | 15 | – | – |
| AGAUGUAGCGGAAGGAGCGUCAUGAGGAUCACCCAUGGCUCCCGUUGUGGGAGUUCCUUAGGUCAGGUAGGUCGCCGUUACGUCA [Omei Arg B SS B v6] | 79.7 | 187 | 254 | 359 | 137 |
| AGAUUCGACACGGCCGCCACUUGUGGUGGAUUAUCCAGUGUCGAACAUGAGGAUCACCCAUGUACAAGGACCGGGUGUUGAGUCU [XTryp B #19] | 53.3 | 79.3 | 96.3 | – | – |
| AGCAACAAGUCGGCCGCCACUCAUUUAACAUGAGGAUCACCCAUGUGAAUAACAUGAUUGUAAUAGAGGACCGGGACAGUUGCAU [JR_SSTryptoB_Sub014] | 62.1 | 85.5 | 103 | – | – |
| AGCACUGUGACGGCCGCCACUAUAUUAGGGUGGUAGGGUUCAUAAAUACAUGAGGAUCACCCAUGUAGGACCGGGUCUCAGUGCA [Omei Trp Exc B A v1] | 11.6 | 15.9 | 10 | 12.1 | 21.2 |
| AGCCACUCGAGUGAUCCUCACGAGUGGCUACGAGGACCGGUACGGCCGCCACUCGAAUCAACAUGAGGAUCACCCAUGUAAUAAU [Brourdmod02] | 20.5 | 159 | 802 | 202 | 54.8 |
| AGCCCUGUGCUAGAUACCAGCUACAUGAGGAUCACCCAUGUGCGUCAAGACUGACUGUGUAGCCCUUGGCAGCUACUCGCAUGUA [Exclusion - Theophylline B (Freestyle 4)] | 11.9 | 19 | – | – | 12.5 |
| AGCGACAUGCGUGAUACCAGCUACAUGAGGAUCACCCAUGUCAGUAGGAAACUGCUGUGUAGCCCUUGGCAGCACAGUGCAUGUC [Exclusion - Theophylline B (Freestyle 27)] | 36 | 47.5 | – | – | 36.4 |
| AGCUCGCAUCCUCUAGCGUCAAAGACGCCUCGAGGACCGGUACGGCCGCCACUCGAUAUGAGGAUCACCCAUAUCAAAGCGAGCA [TrypAX 2 #SwitchBubble #AlternativeMS2 #MS2Late #CuTurnoff] | 32.7 | 59.5 | 75.5 | 53.8 | 581 |
| AGGACGGCCGGAAGGAGCGGUACAUGAGGAUCACCCAUGUACCUCUGGGCAUCCGUAGUGUGCCAGGUAGGUCGCCGGUUGCGGG [Veatgema] | 11.1 | 14.5 | 12.1 | 9.88 | 10.8 |
| AGGGAACAUGAGGAUCACCCAUGUGCCGAUACCAGUGAUUUUCAGCACCCUUGGCAGCGGAACCUUUGUUAUAUUAUUCUUAGGG [theeternabot_sameState_MS2_Theo_A_25] | 32.5 | 42.4 | – | – | 41.2 |
| AGGUACGGAAUCCUCAUGUAGUCGUACCAACGAGGACCGGUACGGCCGCCACUCGAAUAAACAUGAGGAUCACCCAUGUAAUAAU [T''-M-T'-T-MS2] | 17.6 | 97.3 | 90.1 | – | – |
| AGUACAUGAGGAUCACCCAUGUAUCGGUACCGAGGACCGGUACGGCCGCCACUCGCAGGACAUGAGGAUCACCCAUGUGCAGCCG [SSTA DOUBLE!!! :-D #10] | 19.2 | 40.9 | 43.8 | 36.8 | 35 |
| AGUCUAUGAAGAGAUACCAGUGAGAGACAUAGACAUGAGGAUCACCCAUGUGACAUGAAGCACCCUUGGCAGCUCAACGAGCUCA [Theo B SS t1] | 31.4 | 50 | – | – | 39 |
| AGUCUUGAACGAAGGAGCGACGUACAUGAGGAUCACCCAUGUGGGAGCGAAAGCUCCUAACGUCAGGUAGGUCGCGUUCGAGACA [Omei Arginine B SS A v1] | 17.7 | 21.9 | 16.2 | 16.7 | 18.6 |
| AGUGUUAUAACUGAUACCAGACCUUUGCUUAUACAUGAGGAUCACCCAUGUAAAAUGGCGGUCCCUUGGCAGCAGAGAAUACACA [#08 Same State - Theophylline B] | 30.2 | 32.9 | – | – | 36.3 |
| AGUGUUAUAACUGAUACCAGACUCUCAUGUUUACAUGAGGAUCACCCAUGUUAUUUCUUUGUCCCUUGGCAGCAGAAUUUACACA [JR_SSTheophyB_Sub009] | 142 | 298 | – | – | 343 |

| Sequence | apparent KD of MS2 coat protein (input ligand: arginine 13.2 mM) [nM] | apparent KD of MS2 coat protein [1] [nM] | apparent KD of MS2 coat protein [2] [nM] | apparent KD of MS2 coat protein (input ligand: none) [nM] | apparent KD of MS2 coat protein [3] [nM] |
| --- | --- | --- | --- | --- | --- |
| AGUGUUAUAACUGAUACCAGACUUGCGCUUAAACAUGAGGAUCACCCAUGUAAAAUGGUUGUCCCUUGGCAGCAGAAAAUACACA [JR_SSTheophyB_Sub006] | 53.2 | 98 | – | – | 98.4 |
| AUAACAUGAGGAUCACCCAUGUAAGCAGAUACCAGCUAGGAAACUAGCCCUUGGCAGCUGCAAGGUGAUCCUAAUGCAGCUGCAA [(M1)-(M2)-(T1)-(T2)-(M)'-(T)'_Design3] | 61.9 | 241 | – | – | 158 |
| AUAACAUGAGGAUCACCCAUGUAAGCAGAUACCAGCUAGGAAACUAGCCCUUGGCAGCUGCAUUCCUCAUGUAGGUAUCUGCUAA [(M1)-(M2)-(T1)-(T2)-(M)'-(T)'_Design4] | 18.4 | 22.1 | – | – | 16.1 |
| AUAACAUGAGGAUCACCCAUGUAGAGUGAUACCAGACUACGUAAUGUCCCUUGGCAGCACAAGUAAAGUUACGAAUAAUGAUAGA [JR_SSTheophyA_Sub002] | 113 | 146 | – | – | 137 |
| AUAACAUGAGGAUCACCCAUGUAUUGGUUACGAGGACCGGUACGGCCGCCACUCGUAUUUUGGUGGUAUUUUGUAUAUAUGAUAA [JR_SSTryptoA_Sub018] | 26.6 | 32.3 | 36.5 | – | – |
| AUAAUAAAGACGGCCGCCACUAUAAACAUGAGGAACAUGAGGAUCACCCAUGUAUGAGGAUCACCUAGGACCGGGUCAAAUAUUA [AstrosExyTryB#3] | 36 | 70.1 | 45.9 | 49.4 | 44.7 |
| AUAAUAAUACAUGAGGAUCACCCAUGUAUGCGAGGACCGGUACGGCCGCCACUCGACCUCAUGCAUACAUGAGGAUCACCCAUGU [Same State Tryptophan A 4] | 18.4 | 55.8 | 67.2 | – | – |
| AUACACCUCGUCCAGGCAAUCUUUAGUGAUACCAGCUAACUCCGUGGCCCUUGGCAGCACAUGAGGAUCACCCAUGUGCGACAUC [Bioninen] | 10.2 | 13.4 | – | – | 11.6 |
| AUACAUGAGGAUCACCCAUGUCAUACAGAAGGAGCGUCACAUAAGACAGGUAGGUCGCUGAUAUAUACGUCACGAAUAGUGACGA [JR_SSArginiA_Sub017] | 16.8 | 23.5 | 20.4 | 18.6 | 18.6 |
| AUACGGCGGUAAAAUCAGAGAGUAAAAGAUACCAGCAAUAAUAAAUGCCCUUGGCAGCUUCUGACAUGAGGAUCACCCAUGUAAA [theeternabot_exclusion_MS2_Theo_A_49] | 15.7 | 18 | – | – | 15 |
| AUCGUACCUGAUGAUACCAGCAAUUGCUCGUAACAUGAGGAUCACCCAUGUGACCAGUGAUGCCCUUGGCAGCAUGAUCGGUGCA [Same State - Theophylline B (Freestyle 20)] | 45.7 | 48.9 | – | – | 45.8 |
| AUCGUACCUGAUGAUACCAGCAAUUGCUCGUAACAUGAGGAUCACCCAUGUGACCAGUGAUGCCCUUGGCAGCAUGGUCGGUGCA [Same State - Theophylline B (Freestyle 21)] | 59.5 | 190 | – | – | 150 |
| AUCUCAUAGAGUGAUACCAGACUACAUGAGGAUCACCCAUGUUACAUUUAAAUAUCAUUUGUCCCUUGGCAGCACAUGAAGUACA [JR_Nu_ExcTheophyB_Sub018] | 22.9 | 37.3 | – | – | 27.6 |
| AUGCAUAUCAGAAGGAGCGUCUUUAACAUGAGGAUCACCCAUGUAACAUUGAAUUCGAUGAGACAGGUAGGUCGCUGAAUAGUAA [SS-ArgB24] | 27.5 | 39.3 | 32.8 | 33.7 | 31.2 |
| AUGGUAAGAACAUGAGGAUCACCCAUGUGACGAGGACCGGUACGGCCGCCACUCGUACCUUAGUCGUCGAACAGAGGAUUCAUGU [Trypt A-MS2@10] | 37.1 | 138 | 125 | – | – |
| AUGUAAGUGGUGUCACUGUGGUCUAGUGAUACCAGUAUCGAAAGAUACCCUUGGCAGCGCUAGAACAUGAGGAUCACCCAUGUUU [#24 Exclusion-TheophyllineA] | 34.8 | 74.8 | – | – | 58.3 |

From the supplement of paper PMC9170038
